Measured values published in paper PMC2217618.

Molecular target: RGDPEG-avidin (UniProt P02701)
Assay: ELISA

Sequence of Bio-ULS-TRAIL (P50591 114-281): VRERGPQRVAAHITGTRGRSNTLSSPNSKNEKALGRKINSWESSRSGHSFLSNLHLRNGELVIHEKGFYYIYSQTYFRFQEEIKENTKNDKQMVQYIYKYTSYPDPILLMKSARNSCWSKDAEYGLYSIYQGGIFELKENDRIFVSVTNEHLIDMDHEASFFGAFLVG
Sequence of RGDPEG-avidin (P02701 25-152): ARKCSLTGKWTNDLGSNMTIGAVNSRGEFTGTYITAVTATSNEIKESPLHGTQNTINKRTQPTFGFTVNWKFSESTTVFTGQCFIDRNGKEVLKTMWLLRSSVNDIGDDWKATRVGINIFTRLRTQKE

Substance: Bio-ULS-TRAIL (from UniProt P50591 114-281) (ligand)
- binding less than Bio-NHS-TRAIL: 40 % less
